Experiment [1] concerns the target T1, FcγRIIB-Fc fusion protein (soluble dimeric FcγRIIB) (human, UniProt P31994 43-217).
T1 construct: extracellular domain; also called FcRIIB-Fc; FcR2B; not shown: hinge-CH2-CH3 domain of human IgG2
T1 sequence (looked up): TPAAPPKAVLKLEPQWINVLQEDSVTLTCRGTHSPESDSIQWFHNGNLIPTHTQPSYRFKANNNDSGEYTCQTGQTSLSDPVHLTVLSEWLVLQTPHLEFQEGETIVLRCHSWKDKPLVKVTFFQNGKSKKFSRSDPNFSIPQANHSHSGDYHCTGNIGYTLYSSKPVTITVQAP
The experiment can be described thus: BIAcore. (Surface plasmon resonance follows binding to a sensor surface in real time, without labels.)

The target in experiment [2] is T1, FcγRIIB-Fc fusion protein (soluble …). As to the kind of experiment: BIAcore separate fit.
The target is the same in experiment [3]. As to the kind of experiment: BIAcore ch4-4-20.

One may read the koff as a measure of how fast the partners let go of each other. A low value points to a long-lived complex.

B1: ch4-4-20 K288N, A330S, P396L (antibody)
chain: EPKSCDKTHTCPPCPAPELLGGPSVFLFPPKPKDTLMISRTPEVTCVVVDVSHEDPEVKFNWYVDGVEVHNANTKPREEQYNSTYRVVSVLTVLHQDWLNGKEYKCKVSNKALPSPIEKTISKAKGQPREPQVYTLPPSREEMTKNQVSLTCLVKGFYPSDIAVEWESNGQPENNYKTTPLVLDSDGSFFLYSKLTVDKSRWQQGNVFSCSVMHEALHNHYTQKSLSLSPGK
For the molecule B1, the koff in experiment [1] and in experiment [2] was 0.05 s⁻¹ throughout.

B2: ch4-4-20 Y319F, P352L, P396L (antibody)
chain: EPKSCDKTHTCPPCPAPELLGGPSVFLFPPKPKDTLMISRTPEVTCVVVDVSHEDPEVKFNWYVDGVEVHNAKTKPREEQYNSTYRVVSVLTVLHQDWLNGKEFKCKVSNKALPAPIEKTISKAKGQPREPQVYTLLPSREEMTKNQVSLTCLVKGFYPSDIAVEWESNGQPENNYKTTPLVLDSDGSFFLYSKLTVDKSRWQQGNVFSCSVMHEALHNHYTQKSLSLSPGK
Molecule B2 came in with a koff in experiment [1] of 0.041 s⁻¹. Also, the “Koff WT/Mut” value in experiment [3] was found to be 2.29.

B3: ch4-4-20 E293V, Q295E, A327T (antibody)
chain: EPKSCDKTHTCPPCPAPELLGGPSVFLFPPKPKDTLMISRTPEVTCVVVDVSHEDPEVKFNWYVDGVEVHNAKTKPRVEEYNSTYRVVSVLTVLHQDWLNGKEYKCKVSNKTLPAPIEKTISKAKGQPREPQVYTLPPSREEMTKNQVSLTCLVKGFYPSDIAVEWESNGQPENNYKTTPPVLDSDGSFFLYSKLTVDKSRWQQGNVFSCSVMHEALHNHYTQKSLSLSPGK
Molecule B3 came in with a koff in experiment [1] of 0.074 s⁻¹. Also, in experiment [3], the “Koff WT/Mut” value came to 1.3.

B4: ch4-4-20 MgFc66 (A330V, G427M) (antibody)
chain 1: not shown
chain 2: DVVMTQTPLSLPVSLGDQASISCRSSQSLVHSNGNTYLRWYLQKPGQSPKVLIYKVSNRFSGVPDRFSGSGSGTDFTLKISRVEAEDLGVYFCSQSTHVPWTFGGGTKLEIKRTVAAPSVFIFPPSDEQLKSGTASVVCLLNNFYPREAKVQWKVDNALQSGNSQESVTEQDSKDSTYSLSSTLTLSKADYEKHKVYACEVTHQGLSSPVTKSFNRGEC
Turning to B4, the “Koff WT/Mut” value in experiment [3] is 0.62.

For the origin of these results see US20050064514A1 (MacroGenics, published 2005).
